Data on 125 sequences can be found in the supplement of paper PMC9112550, “Optimization of the antimicrobial peptide Bac7 by deep mutational scanning” (BMC Biology, 2022).

In the data set the test system is Escherichia coli TOP10. Nature of the data set: shrunken log2 fold change of peptide-encoding DNA abundance (4.5 h post-induction vs induction); higher = less antimicrobial activity (less host growth inhibition). The conditions noted are these: time post-induction: 4.5 h; library: site-saturation at positions 5, 18, 19, 20.
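Further: peptides expressed intracellularly from a pBAD plasmid library in pooled LB shake-flask culture, induced with 0.3% L-arabinose, DNA abundance read by NGS, three biological replicates, DESeq2 with apeglm shrinkage.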

As for RRIRWRPPRLPRPRPRPAERPRP, the “shrunken log2 fold change” value amounted to 0.0973.

Regarding RRIRLRPPRLPRPRPRPMTEPRP, the “shrunken log2 fold change” value was -0.0455.

Consider RRIRCRPPRLPRPRPRPLHLPRP, for which the “shrunken log2 fold change” value was -0.302.

Consider RRIRMRPPRLPRPRPRPAVQPRP, for which the “shrunken log2 fold change” value stood at 0.0778.

Take RRIRWRPPRLPRPRPRPQSGPRP: the “shrunken log2 fold change” value was determined as 0.186.

Consider RRIRLRPPRLPRPRPRPSANPRP, for which the “shrunken log2 fold change” value is -0.0303.

In the case of RRIRCRPPRLPRPRPRPELMPRP, the “shrunken log2 fold change” value turned out to be 0.23.

In the case of RRIRCRPPRLPRPRPRPMYCPRP, the “shrunken log2 fold change” value is -1.66.

For the sequence RRIRGRPPRLPRPRPRPFRLPRP, the “shrunken log2 fold change” value was -0.194.

As for RRIRTRPPRLPRPRPRPVLLPRP, the “shrunken log2 fold change” value is -0.127.

In the case of RRIRKRPPRLPRPRPRPDVVPRP, the “shrunken log2 fold change” value is -0.0061.

Take RRIRWRPPRLPRPRPRPELSPRP: the “shrunken log2 fold change” value amounted to 0.101.

In the case of RRIRARPPRLPRPRPRPYELPRP, the “shrunken log2 fold change” value was -0.101.

For RRIRSRPPRLPRPRPRPHGMPRP, the “shrunken log2 fold change” value was -0.21.

On to RRIRYRPPRLPRPRPRPMGKPRP, for which the “shrunken log2 fold change” value is -0.452.

Consider RRIRYRPPRLPRPRPRPNARPRP, for which the “shrunken log2 fold change” value is -0.0675.

For the sequence RRIRDRPPRLPRPRPRPFTGPRP, the “shrunken log2 fold change” value is -0.267.

As to RRIRKRPPRLPRPRPRPIARPRP, the “shrunken log2 fold change” value is -0.0481.

Consider RRIRKRPPRLPRPRPRPMSQPRP, for which the “shrunken log2 fold change” value is -0.0623.

Take RRIRVRPPRLPRPRPRPMDEPRP: the “shrunken log2 fold change” value came out at 0.422.

As for RRIRPRPPRLPRPRPRPKYQPRP, the “shrunken log2 fold change” value is -0.411.

RRIRLRPPRLPRPRPRPMVWPRP: the “shrunken log2 fold change” value came out at 0.0457.

For the sequence RRIRSRPPRLPRPRPRPCDRPRP, the “shrunken log2 fold change” value is -0.00911.

RRIRVRPPRLPRPRPRPNLRPRP: the “shrunken log2 fold change” value was 0.0738.

As to RRIRHRPPRLPRPRPRPRYQPRP, the “shrunken log2 fold change” value was -1.18.

For the sequence RRIRSRPPRLPRPRPRPTYCPRP, the “shrunken log2 fold change” value is -0.112.

In the case of RRIRQRPPRLPRPRPRPGNPPRP, the “shrunken log2 fold change” value is -0.132.

RRIRERPPRLPRPRPRPNHYPRP: the “shrunken log2 fold change” value is -1.57.

Consider RRIRNRPPRLPRPRPRPRICPRP, for which the “shrunken log2 fold change” value stood at 0.101.

Regarding RRIRNRPPRLPRPRPRPTARPRP, the “shrunken log2 fold change” value was 0.198.

In the case of RRIRVRPPRLPRPRPRPRQVPRP, the “shrunken log2 fold change” value stood at 0.0645.

RRIRTRPPRLPRPRPRPDMLPRP: the “shrunken log2 fold change” value was 0.035.

On to RRIRIRPPRLPRPRPRPQLCPRP, for which the “shrunken log2 fold change” value was -0.222.

In the case of RRIRMRPPRLPRPRPRPQVLPRP, the “shrunken log2 fold change” value came out at 0.25.

As to RRIRTRPPRLPRPRPRPMRTPRP, the “shrunken log2 fold change” value is 0.276.

Take RRIRDRPPRLPRPRPRPPYEPRP: the “shrunken log2 fold change” value was -0.0831.

For RRIRSRPPRLPRPRPRPKVNPRP, the “shrunken log2 fold change” value was -0.333.

Regarding RRIRFRPPRLPRPRPRPSIAPRP, the “shrunken log2 fold change” value was -0.271.

With RRIRYRPPRLPRPRPRPYLIPRP, the “shrunken log2 fold change” value is -0.554.

For the sequence RRIRCRPPRLPRPRPRPYTNPRP, the “shrunken log2 fold change” value was -1.19.

As to RRIRQRPPRLPRPRPRPPRCPRP, the “shrunken log2 fold change” value was found to be 0.689.

As for RRIRHRPPRLPRPRPRPKECPRP, the “shrunken log2 fold change” value was -0.212.

As to RRIRWRPPRLPRPRPRPIYLPRP, the “shrunken log2 fold change” value was -0.674.

As for RRIRSRPPRLPRPRPRPWVNPRP, the “shrunken log2 fold change” value is -0.0336.

In the case of RRIRGRPPRLPRPRPRPAYEPRP, the “shrunken log2 fold change” value came out at 0.457.

For the sequence RRIRARPPRLPRPRPRPLHFPRP, the “shrunken log2 fold change” value is 0.211.

In the case of RRIRHRPPRLPRPRPRPFAMPRP, the “shrunken log2 fold change” value was -0.424.

For the sequence RRIRERPPRLPRPRPRPRSDPRP, the “shrunken log2 fold change” value is -0.323.

Consider RRIRCRPPRLPRPRPRPGMPPRP, for which the “shrunken log2 fold change” value is -0.257.

Turning to RRIRMRPPRLPRPRPRPWKGPRP, the “shrunken log2 fold change” value was -0.00192.

Regarding RRIRYRPPRLPRPRPRPYCKPRP, the “shrunken log2 fold change” value is -1.32.

With RRIRIRPPRLPRPRPRPAKNPRP, the “shrunken log2 fold change” value worked out at 2.21.

RRIRIRPPRLPRPRPRPHAGPRP: the “shrunken log2 fold change” value was -0.242.

Regarding RRIRNRPPRLPRPRPRPWECPRP, the “shrunken log2 fold change” value is -0.00145.

As for RRIRARPPRLPRPRPRPTDEPRP, the “shrunken log2 fold change” value amounted to 0.594.

For RRIRQRPPRLPRPRPRPYSTPRP, the “shrunken log2 fold change” value was -0.0896.

Consider RRIRYRPPRLPRPRPRPKHRPRP, for which the “shrunken log2 fold change” value worked out at 0.0727.

As to RRIRPRPPRLPRPRPRPQNAPRP, the “shrunken log2 fold change” value is -0.0677.

On to RRIRGRPPRLPRPRPRPDGGPRP, for which the “shrunken log2 fold change” value stood at 0.468.

For the sequence RRIRSRPPRLPRPRPRPWAAPRP, the “shrunken log2 fold change” value worked out at 0.327.

Turning to RRIRPRPPRLPRPRPRPEWVPRP, the “shrunken log2 fold change” value is 0.332.

Consider RRIRRRPPRLPRPRPRPMSYPRP, for which the “shrunken log2 fold change” value is -0.0379.

For the sequence RRIRPRPPRLPRPRPRPYLYPRP, the “shrunken log2 fold change” value was -0.672.

For the sequence RRIRYRPPRLPRPRPRPIFQPRP, the “shrunken log2 fold change” value is -0.568.

Take RRIRDRPPRLPRPRPRPFYEPRP: the “shrunken log2 fold change” value is -0.262.

Take RRIRCRPPRLPRPRPRPNDEPRP: the “shrunken log2 fold change” value was -0.0298.

Regarding RRIRRRPPRLPRPRPRPHHNPRP, the “shrunken log2 fold change” value was -0.393.

As for RRIRDRPPRLPRPRPRPEHWPRP, the “shrunken log2 fold change” value came to 0.598.

In the case of RRIRQRPPRLPRPRPRPHHDPRP, the “shrunken log2 fold change” value is -0.000328.

Turning to RRIRLRPPRLPRPRPRPVLVPRP, the “shrunken log2 fold change” value is -0.161.

With RRIRIRPPRLPRPRPRPTKEPRP, the “shrunken log2 fold change” value came to 0.0462.

With RRIRPRPPRLPRPRPRPDGEPRP, the “shrunken log2 fold change” value is 0.0766.

Turning to RRIRPRPPRLPRPRPRPANSPRP, the “shrunken log2 fold change” value came out at 0.00247.

RRIRKRPPRLPRPRPRPRFYPRP: the “shrunken log2 fold change” value stood at 0.33.

As to RRIRGRPPRLPRPRPRPQEWPRP, the “shrunken log2 fold change” value was determined as 0.12.

For the sequence RRIRQRPPRLPRPRPRPGWLPRP, the “shrunken log2 fold change” value was determined as 0.193.

On to RRIRMRPPRLPRPRPRPWPAPRP, for which the “shrunken log2 fold change” value came out at 0.807.

Regarding RRIRWRPPRLPRPRPRPQGMPRP, the “shrunken log2 fold change” value is -0.225.

With RRIRSRPPRLPRPRPRPCFCPRP, the “shrunken log2 fold change” value is -0.489.

For the sequence RRIRIRPPRLPRPRPRPCDDPRP, the “shrunken log2 fold change” value was -0.395.

For the sequence RRIRKRPPRLPRPRPRPPYCPRP, the “shrunken log2 fold change” value is 0.0662.

Turning to RRIRLRPPRLPRPRPRPFQYPRP, the “shrunken log2 fold change” value was -0.182.

Consider RRIRTRPPRLPRPRPRPVLKPRP, for which the “shrunken log2 fold change” value stood at 0.209.

Regarding RRIRARPPRLPRPRPRPQMGPRP, the “shrunken log2 fold change” value was -0.0713.

For the sequence RRIRTRPPRLPRPRPRPGARPRP, the “shrunken log2 fold change” value is 0.212.

On to RRIRLRPPRLPRPRPRPQRCPRP, for which the “shrunken log2 fold change” value amounted to 0.487.

Turning to RRIRKRPPRLPRPRPRPTCNPRP, the “shrunken log2 fold change” value is 0.198.

Consider RRIRVRPPRLPRPRPRPWVQPRP, for which the “shrunken log2 fold change” value is -0.021.

With RRIRCRPPRLPRPRPRPLWCPRP, the “shrunken log2 fold change” value is -0.208.

On to RRIRDRPPRLPRPRPRPTPIPRP, for which the “shrunken log2 fold change” value amounted to 0.103.

Turning to RRIRWRPPRLPRPRPRPFYDPRP, the “shrunken log2 fold change” value was -0.21.

For the sequence RRIRGRPPRLPRPRPRPKFDPRP, the “shrunken log2 fold change” value was 0.867.

As for RRIRPRPPRLPRPRPRPMRPPRP, the “shrunken log2 fold change” value is 1.04.

As for RRIRYRPPRLPRPRPRPHFVPRP, the “shrunken log2 fold change” value was -0.182.

On to RRIRGRPPRLPRPRPRPSYWPRP, for which the “shrunken log2 fold change” value was found to be 0.119.

With RRIRMRPPRLPRPRPRPMVAPRP, the “shrunken log2 fold change” value turned out to be 0.12.

As for RRIRERPPRLPRPRPRPGPRPRP, the “shrunken log2 fold change” value is 0.537.

With RRIRTRPPRLPRPRPRPVWEPRP, the “shrunken log2 fold change” value is 0.264.

For the sequence RRIRHRPPRLPRPRPRPGEPPRP, the “shrunken log2 fold change” value is -0.0215.

For RRIRKRPPRLPRPRPRPIAVPRP, the “shrunken log2 fold change” value worked out at 0.131.

For the sequence RRIRFRPPRLPRPRPRPQIEPRP, the “shrunken log2 fold change” value was -0.24.

Consider RRIRKRPPRLPRPRPRPVSWPRP, for which the “shrunken log2 fold change” value came out at 0.821.

On to RRIRFRPPRLPRPRPRPALCPRP, for which the “shrunken log2 fold change” value was -0.088.

For RRIRDRPPRLPRPRPRPSNLPRP, the “shrunken log2 fold change” value is -0.0257.

As for RRIRSRPPRLPRPRPRPNYTPRP, the “shrunken log2 fold change” value was -0.479.

In the case of RRIRARPPRLPRPRPRPRPIPRP, the “shrunken log2 fold change” value came out at 0.719.

In the case of RRIRVRPPRLPRPRPRPKMNPRP, the “shrunken log2 fold change” value is -0.262.

Regarding RRIRCRPPRLPRPRPRPRHNPRP, the “shrunken log2 fold change” value was -0.374.

RRIRLRPPRLPRPRPRPVPWPRP: the “shrunken log2 fold change” value is 0.0255.

For the sequence RRIRMRPPRLPRPRPRPGNGPRP, the “shrunken log2 fold change” value was 0.885.

For the sequence RRIRIRPPRLPRPRPRPKSWPRP, the “shrunken log2 fold change” value was determined as 0.327.

Regarding RRIRQRPPRLPRPRPRPPYQPRP, the “shrunken log2 fold change” value is -0.216.

For the sequence RRIRRRPPRLPRPRPRPYRSPRP, the “shrunken log2 fold change” value was -0.0969.

Turning to RRIRHRPPRLPRPRPRPAETPRP, the “shrunken log2 fold change” value was -0.074.

Take RRIRIRPPRLPRPRPRPCEIPRP: the “shrunken log2 fold change” value was -0.0178.

For the sequence RRIRIRPPRLPRPRPRPQTMPRP, the “shrunken log2 fold change” value is -0.0804.

Consider RRIRTRPPRLPRPRPRPSFPPRP, for which the “shrunken log2 fold change” value is -0.261.

With RRIRWRPPRLPRPRPRPYKYPRP, the “shrunken log2 fold change” value is -0.977.

As to RRIRLRPPRLPRPRPRPTAIPRP, the “shrunken log2 fold change” value was -0.17.

In the case of RRIRTRPPRLPRPRPRPHGNPRP, the “shrunken log2 fold change” value was -0.718.

On to RRIRWRPPRLPRPRPRPMCRPRP, for which the “shrunken log2 fold change” value is -0.117.

As for RRIRSRPPRLPRPRPRPRFRPRP, the “shrunken log2 fold change” value turned out to be 0.203.

With RRIRDRPPRLPRPRPRPGMRPRP, the “shrunken log2 fold change” value is 1.02.

With RRIRERPPRLPRPRPRPRCAPRP, the “shrunken log2 fold change” value stood at 0.228.

For RRIRARPPRLPRPRPRPGYNPRP, the “shrunken log2 fold change” value was -0.403.
